According to patent publication US20250129168A1 (DREN BIO, published 2025):

Tests used:
[1] = target: T1, human Dectin-1 (isoform not given) (human, UniProt Q9BXN2 1-247); test: flow cytometry on human monocytes (summary table)
T1 chain: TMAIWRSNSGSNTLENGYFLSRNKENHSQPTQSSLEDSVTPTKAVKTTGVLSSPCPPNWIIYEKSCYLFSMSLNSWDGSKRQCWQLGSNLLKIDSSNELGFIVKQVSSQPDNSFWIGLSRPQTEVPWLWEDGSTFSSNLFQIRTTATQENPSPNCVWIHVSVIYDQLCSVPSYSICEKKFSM

[2] = target: T2, human Dectin-1 isoform B (human, UniProt Q9BXN2 1-247); test: flow cytometry on HEK-Blue hDectin-1b cells (summary table)
T2 construct: On HEK-Blue hDectin-1b cells (Invivogen); also called hDectin-1b
T2 sequence: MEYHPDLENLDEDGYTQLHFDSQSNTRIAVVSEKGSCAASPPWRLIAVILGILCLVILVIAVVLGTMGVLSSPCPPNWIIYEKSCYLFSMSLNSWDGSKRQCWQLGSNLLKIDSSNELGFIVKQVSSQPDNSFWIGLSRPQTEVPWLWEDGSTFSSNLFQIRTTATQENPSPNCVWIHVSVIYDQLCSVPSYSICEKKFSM

[3] = target: T3, human Dectin-1 isoform A (human, UniProt Q9BXN2 1-247); test: flow cytometry on HEK293F hDectin-1a FL cells (summary table)
T3 construct: On HEK-Blue hDectin-1a cells (Invivogen); also called hDectin-1a
T3 sequence: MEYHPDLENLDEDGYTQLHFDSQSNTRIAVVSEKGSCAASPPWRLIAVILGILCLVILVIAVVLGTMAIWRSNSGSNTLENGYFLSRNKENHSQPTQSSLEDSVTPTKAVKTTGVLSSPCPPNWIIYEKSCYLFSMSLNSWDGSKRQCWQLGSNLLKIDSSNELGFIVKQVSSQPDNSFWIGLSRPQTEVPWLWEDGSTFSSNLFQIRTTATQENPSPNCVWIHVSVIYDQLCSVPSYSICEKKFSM

[4] = target: T1, human Dectin-1 (isoform not given); test: flow cytometry on human monocytes
[5] = target: T3, human Dectin-1 isoform A; test: flow cytometry on HEK-Blue hDectin-1a cells (summary table)
[6] = target: T4, cynomolgus monkey Dectin-1 (cynomolgus monkey, UniProt A0A2K5UXY6 35-281); test: flow cytometry, cynomolgus monkey monocytes
T4 construct: whole, on cells; also called cynomolgus Dectin-1; cyno Dectin-1
T4 sequence: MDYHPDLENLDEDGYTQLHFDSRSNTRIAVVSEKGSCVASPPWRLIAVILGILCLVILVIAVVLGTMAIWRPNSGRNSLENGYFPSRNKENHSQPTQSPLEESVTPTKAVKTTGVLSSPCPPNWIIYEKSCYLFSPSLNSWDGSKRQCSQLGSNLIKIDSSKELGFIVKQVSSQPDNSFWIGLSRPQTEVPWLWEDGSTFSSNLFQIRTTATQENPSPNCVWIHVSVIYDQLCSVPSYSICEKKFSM

[7] = target: T3, human Dectin-1 isoform A; test: flow cytometry on HEK-Blue hDectin-1a cells
[8] = target: T3, human Dectin-1 isoform A; test: flow cytometry on HEK293F hDectin-1a FL cells
[9] = target: T2, human Dectin-1 isoform B; test: flow cytometry on HEK-Blue hDectin-1b cells
[10] = target: T1, human Dectin-1 (isoform not given); test: cell-based or functional assay
[11] = target: T5, Fc gamma receptor CD16a F variant (human, UniProt P08637); test: ELISA, plate coated with recombinant huCD16a (F variant), detection with peroxidase anti-human IgG F(ab')2, OD 450 nm - 630 nm
T5 construct: recombinant protein coated on the ELISA plate; also called recombinant huCD16a

[12] = target: T1, human Dectin-1 (isoform not given); test: flow cytometry on Dectin-1-expressing HEK cells
[13] = target: T6, Trop-2 (human, UniProt P09758 27-323); test: flow cytometry on A431 cells (Trop-2-expressing)
T6 construct: whole, on cells
T6 sequence (looked up): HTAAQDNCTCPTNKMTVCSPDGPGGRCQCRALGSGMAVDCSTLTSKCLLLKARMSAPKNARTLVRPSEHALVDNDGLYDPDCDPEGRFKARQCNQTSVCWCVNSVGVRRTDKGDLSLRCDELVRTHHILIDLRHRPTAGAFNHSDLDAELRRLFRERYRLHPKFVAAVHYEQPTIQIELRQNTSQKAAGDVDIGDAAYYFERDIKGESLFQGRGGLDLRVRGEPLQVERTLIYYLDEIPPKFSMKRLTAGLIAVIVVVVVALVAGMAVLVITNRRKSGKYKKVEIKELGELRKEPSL

[14] = target: T1, human Dectin-1 (isoform not given); test: flow cytometry on Dectin-1-expressing HEK cells, 4PL fit [upper panel]

T5 sequence (P08637 17-208 limits assumed, change not shown): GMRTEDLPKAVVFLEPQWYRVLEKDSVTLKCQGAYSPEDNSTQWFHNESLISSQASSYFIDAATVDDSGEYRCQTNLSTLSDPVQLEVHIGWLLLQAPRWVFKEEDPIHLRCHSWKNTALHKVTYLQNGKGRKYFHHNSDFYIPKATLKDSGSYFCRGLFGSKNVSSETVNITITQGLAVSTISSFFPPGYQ

B1: commercial anti-Dectin-1 antibody 15E2 (antibody, V domains shown)
VH: QWQLQQSGAELARPGASWKMSCKASGYTFTTYTMHWWKQRPGQGLEWIGYINPSSGYTNYNQKFKDKATLTADKSSSTASMQLSSLTSEDSAWYYCARERAVLVPYAMDYWGQGTSVTVSS
VL: QIVLTQSPAVMSASPGEKWTITCTASSSLSYMHWFQQKPGTSPKLWLYSTSILASGVPTRFSGSGSGTSYSLTISRMEAEDAATYYCQQRSSSPFTFGSGTKLEIK
[1]
  EC50: 0.6 nM
[2]
  EC50: 9.3 nM
[3]
  EC50: 1.4 nM
[4]
  EC50: 0.6 nM
[5]
  EC50: 1.2 nM
[6]
  EC50: 14 nM
[7]
  EC50: 1.2 nM
[8]
  EC50: 1.4 nM
[9]
  EC50: 9.3 nM
[10]
  IFNg secretion in PBMC, immobilized antibody (fold change to isotype): 1.6 fold change to isotype
  IL6 secretion in PBMC, immobilized antibody (fold change to isotype): 2.6 fold change to isotype
  TNFa secretion in PBMC, immobilized antibody (fold change to isotype): 3 fold change to isotype

B2: 2M24 CD20 NF (bispecific antibody)
chain 1: not shown
chain 2: not shown
chain 3: not shown
chain 4: QIVLSQSPAILSASPGEKVTMTCRASSSVSYIHWFQQKPGSSPKPWIYATSNLASGVPVRFSGSGSGTSYSLTISRVEAEDAATYYCQQWTSNPPTFGGGTKLEIKRTVAAPSVFIFPPSDEQLKSGTASVVCLLNNFYPREAKVQWKVDNALQSGNSQESVTEQDSKDSTYSLSSTLTLSKADYEKHKVYACEVTHQGLSSPVTKSFNRGEC
modifications: non-fucosylated Fc glycan
[11]
  EC50 (read off the curve): ~0.1 µg/mL

B3: 2M24/Trop-2 hIgG1 bispecific antibody (bispecific antibody, V domains shown)
VH 1: QVQLVQSGAEVKKPGASVKVSCKSSGYTFTDYYIHWVRQAPGQGLEWMGWINPNSGDTNYAQKFQGRITMTRDTSISTAYLELSRLRSDDTAVFYCARNSGSYSFGYWGQGTLVTVSS
VL 1: DIQMTQSPSSVSASVGDRVTITCRASQGISSWLAWYQQKPGKAPKLLIFGASSLQSGVPSRFSGSGSGTDFTLTVSSLQPEDFATYYCQQAYSFPFTFGPGTKVDIE
VH 2: QVQLQQSGSELKKPGASVKVSCKASGYTFTNYGMNWVKQAPGQGLKWMGWINTYTGEPTYTDDFKGRFAFSLDTSVSTAYLQISSLKADDTAVYFCARGGFGSSYWYFDVWGQGSLVTVSS
VL 2: DIQLTQSPSSLSASVGDRVSITCKASQDVSIAVAWYQQKPGKAPKLLIYSASYRYTGVPDRFSGSGSGTDFTLTISSLQPEDFAVYYCQQHYITPLTFGAGTKVEIK
notes: Human IgG1; also called anti-Dectin-1 (2M24)/anti-Trop-2 bispecific antibody
[12]
  EC50 (read off the curve): ~3 nM

B4: parental anti-Trop2 monospecific antibody (antibody, V domains shown)
VH: QVQLQQSGSELKKPGASVKVSCKASGYTFTNYGMNWVKQAPGQGLKWMGWINTYTGEPTYTDDFKGRFAFSLDTSVSTAYLQISSLKADDTAVYFCARGGFGSSYWYFDVWGQGSLVTVSS
VL: DIQLTQSPSSLSASVGDRVSITCKASQDVSIAVAWYQQKPGKAPKLLIYSASYRYTGVPDRFSGSGSGTDFTLTISSLQPEDFAVYYCQQHYITPLTFGAGTKVEIK
[13]
  EC50 (read off the curve): ~8 nM

B5: 2M24/Nectin-4 hIgG1 bispecific antibody (bispecific antibody, V domains shown)
VH 1: QVQLVQSGAEVKKPGASVKVSCKSSGYTFTDYYIHWVRQAPGQGLEWMGWINPNSGDTNYAQKFQGRITMTRDTSISTAYLELSRLRSDDTAVFYCARNSGSYSFGYWGQGTLVTVSS
VL 1: DIQMTQSPSSVSASVGDRVTITCRASQGISSWLAWYQQKPGKAPKLLIFGASSLQSGVPSRFSGSGSGTDFTLTVSSLQPEDFATYYCQQAYSFPFTFGPGTKVDIE
VH 2: EVQLVESGGGLVQPGGSLRLSCAASGFTFSSYNMNWVRQAPGKGLEWVSYISSSSSTIYYADSVKGRFTISRDNAKNSLSLQMNSLRDEDTAVYYCARAYYYGMDVWGQGTTVTVSS
VL 2: DIQMTQSPSSVSASVGDRVTITCRASQGISGWLAWYQQKPGKAPKFLIYAASTLQSGVPSRFSGSGSGTDFTLTISSLQPEDFATYYCQQANSFPPTFGGGTKVEIK
notes: Human IgG1
[14]
  EC50: 2.65 nM
